The values that follow come from article PMC4996945, “Crosstalk between MSH2–MSH3 and polβ promotes trinucleotide repeat expansion during base excision repair”.

In this data set the target is MSH2;MSH3 (Homo sapiens;Homo sapiens, UniProt P43246;P20585 1-934;1-1137, |). Put plainly: gel filtration; 1:1:1 OGG1, MSH2-MSH3, DNA; MSH2-MSH3-DNA peak; 10 mM HEPES pH 8.1, 110 mM NaCl, 1 mM DTT, 0.1 mg/ml BSA, 10% glycerol, 0.25% inositol, 5 mM Mg2+, 2 mM ATP, 2 mM ADP; on ice (EMSA 10 min, gel at 4 °C; footprint binding 15 min, DNase I at 37 °C); 25 nM DNA. The settings on record: protein: recombinant;recombinant; tags: ;His; copies: 1;1. (SEC sorts molecules by how far they enter the pores of the column.)

B1: CAG-duplex (80) with one 8-oxo-G (dsDNA)
DNA 1: CAAGCACGTTGACTACCGTCCAGCAGCAGCAGCAGCAGCAGCAGCAGCAGCAGCAGCAGTTTGAGGCAGAGTCCGAACAC
DNA 2: GTGTTCGGACTCTGCCTCAAACTGCTGCTGCTGCTGCTGCTGCTGCTGCTGCTGCTGCTGGACGGTAGTCAACGTGCTTG
modifications: one 8-oxo-G (stated position 17, exact G not marked in text); complement not given
Regarding B1, the binding result is listed as “binds”.
